Source: patent US20260125472A1 (HEFEI TG IMMUNOPHARMA, published 2026)

T1: Trop2 protein (UniProt P09758 27-274)
T1 construct: Bought recombinant protein; also called Trop2-Biotin protein (biotin-labelled, bridging ELISA)
T1 sequence (looked up): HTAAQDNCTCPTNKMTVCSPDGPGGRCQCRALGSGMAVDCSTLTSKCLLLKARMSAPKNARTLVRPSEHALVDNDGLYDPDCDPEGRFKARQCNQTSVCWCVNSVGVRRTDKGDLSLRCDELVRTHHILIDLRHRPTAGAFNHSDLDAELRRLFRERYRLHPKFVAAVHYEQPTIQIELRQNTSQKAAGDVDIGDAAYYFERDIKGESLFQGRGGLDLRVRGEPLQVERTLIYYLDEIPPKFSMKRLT

T2: Trop2 on A-375-Trop2 melanoma cells (UniProt P09758 27-323, limits assumed)
T2 construct: whole, on cells
T2 sequence (looked up): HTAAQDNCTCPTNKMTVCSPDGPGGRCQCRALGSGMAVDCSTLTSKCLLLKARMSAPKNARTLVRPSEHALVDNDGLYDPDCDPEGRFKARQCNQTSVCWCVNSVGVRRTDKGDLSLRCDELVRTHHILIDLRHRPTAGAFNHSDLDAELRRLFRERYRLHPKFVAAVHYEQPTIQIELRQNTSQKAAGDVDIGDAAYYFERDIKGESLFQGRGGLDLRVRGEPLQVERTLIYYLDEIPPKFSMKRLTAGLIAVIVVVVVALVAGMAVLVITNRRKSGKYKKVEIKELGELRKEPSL


Experiments:
Trop2 protein = target: T1, Trop2 protein; assay: ELISA, coated Trop2 protein, OD450
Text: In this example, the binding properties of the CD3×Trop2 and CD3×PDL1 bispecific antibody (the production method and the amino acid sequences of the heavy and light chains were shown in Example 1) were detected by using ELISA. The CD3E&D, Trop2, or PDL1 protein was coated onto 96-well plates by inventors, and the strength of the signal after the addition of the antibody was used to determine the binding properties of the antibody and the corresponding protein.
(2) Trop2 protein (purchased from Acro) was diluted to 2 μg/ml with PBS buffer, added to a 96-well plate at a volume of 100 μL/well, and placed at 4° C. overnight. The PBS buffer in the 96-well plate was aspirated, and the plate was washed 6 times with PBST (pH 7.2 PBS containing 0.1% Tween 20) buffer. Then, 200 μL/well PBS/10% BSA was added and incubated at 37° C. for 2 h for blocking. The blocking solution was removed, and the plate was washed six times with PBST. Then, the to-be-tested bispecific antibodies, Cross3×Trop2, Cross303×Trop2, Cross307×Trop2, Cross308×Trop2, Cross309×Trop2, Cross310×Trop2, Cross311×Trop2, Cross312×Trop2, Cross313×Trop2, Cross314×Trop2, Cross316×Trop2, Cross317×Trop2, Cross318×Trop2, Cross323×Trop2, Cross325×Trop2, Cross326×Trop2, and control IgG1LALA (purchased from Bio-Tech), serially diluted with PBST/0.05% BSA, were added at 100 μL/well and incubated at 37° C. for 1 h. The reaction system was removed, and the plate was washed 6 times with PBST. Then, HRP (horseradish peroxidase)-labeled anti-human secondary antibody (Fab specific) (purchased from Sigma) diluted with PBST/0.05% BSA at 100 μL/well. After the plate was washed six times with PBST, TMB (tetramethylbenzidine) was added at 80 μL/well, and incubated at room temperature for 3 min. 4 M sulfuric acid was added at 80 μL/well to terminate the reaction. The absorbance was read at 450 nm using a microplate reader.

[1] = target: T2, Trop2 on A-375-Trop2 melanoma cells; assay: flow cytometry, A-375-Trop2 cells, MFI [panel B]
Method: (2) The tumor cells were diluted to 2×10⁶/ml with PBS and added to a 1.5 ml EP tube at a volume of 100 μl/tube, and goat serum was added thereto at 10 μl/tube. The cells were blocked at 4° C. for 30 min. The serially diluted bispecific antibodies, Cross3×Trop2, Cross303×Trop2, Cross307×Trop2, Cross308×Trop2, Cross309×Trop2, Cross310×Trop2, Cross311×Trop2, Cross312×Trop2, Cross313×Trop2, Cross314×Trop2, Cross316×Trop2, Cross317×Trop2, Cross318×Trop2, Cross323×Trop2, Cross325×Trop2, Cross326×Trop2, and Cross3×PDL1, Cross303×PDL1, Cross307×PDL1, Cross308×PDL1, Cross309×PDL1, Cross310×PDL1, Cross311×PDL1, Cross312×PDL1, Cross313×PDL1, Cross314×PDL1, Cross316×PDL1, Cross317×PDL1, Cross318×PDL1, Cross323×PDL1, Cross325×PDL1, Cross326×PDL1, and control hIgG1LALA (purchased from Bio-Tech) were added and incubated at 4° C. for 30 min. 1 ml of PBS was added to the EP tube, followed by centrifugation at 3500 rpm for 5 min at 4° C. The supernatant was discarded, and the cells were washed again with PBS. After centrifugation, the supernatant was completely discarded, and the cells were resuspended with PBS at 100 μl/tube. Alexa-647-labeled goat anti-human IgG secondary antibody (purchased from Jackson lab) was added at 1 μl/tube and incubated at 4° C. in the dark for 30 min. The cells were washed twice with PBS, and the supernatant was completely discarded after centrifugation. The cells were resuspended with PBS at 200 μl/tube and assay was performed using the flow cytometry.

| EC50 (read off the curve) (Trop2 protein) | EC50 (read off the curve) [1] | Binder |
| --- | --- | --- |
| ~0.008 µg/mL | ~1 µg/mL | Cross308×Trop2 (bispecific antibody) scFv: not shown heavy: QVQLQQSGSELKKPGASVKVSCKASGYTFTNYGMNWVKQAPGQGLKWMGWINTYTGEPTYTDDFKGRFAFSLDTSVSTAYLQISSLKADDTAVYFCARGGFGSSYWYFDVWGQGSLVTVSSASTKGPSVFPLAPSSKSTSGGTAALGCLVKDYFPEPVTVSWNSGALTSGVHTFPAVLQSSGLYSLSSVVTVPSSSLGTQTYICNVNHKPSNTKVDKKVEPKSSDKTHTCPPCPAPEAAGGPSVFLFPPKPKDTLMISRTPEVTCVVVDVSHEDPEVKFNWYVDGVEVHNAKTKPREEQYNSTYRVVSVLTVLHQDWLNGKEYKCKVSNKALPAPIEKTISKAKGQPREPQVCTLPPSREEMTKNQVSLSCAVKGFYPSDIAVEWESNGQPENNYKTTPPVLDSDGSFFLVSKLTVDKSRWQQGNVFSCSVMHEALHNHYTQKSLSLSPGK light: DIQLTQSPSSLSASVGDRVSITCKASQDVSIAVAWYQQKPGKAPKLLIYSASYRYTGVPDRFSGSGSGTDFTLTISSLQPEDFAVYYCQQHYITPLTFGAGTKVEIKRTVAAPSVFIFPPSDEQLKSGTASVVCLLNNFYPREAKVQWKVDNALQSGNSQESVTEQDSKDSTYSLSSTLTLSKADYEKHKVYACEVTHQGLSSPVTKSFNRGEC |
| ~0.008 µg/mL | ~1 µg/mL | Cross313×Trop2 (bispecific antibody) scFv: not shown heavy: QVQLQQSGSELKKPGASVKVSCKASGYTFTNYGMNWVKQAPGQGLKWMGWINTYTGEPTYTDDFKGRFAFSLDTSVSTAYLQISSLKADDTAVYFCARGGFGSSYWYFDVWGQGSLVTVSSASTKGPSVFPLAPSSKSTSGGTAALGCLVKDYFPEPVTVSWNSGALTSGVHTFPAVLQSSGLYSLSSVVTVPSSSLGTQTYICNVNHKPSNTKVDKKVEPKSSDKTHTCPPCPAPEAAGGPSVFLFPPKPKDTLMISRTPEVTCVVVDVSHEDPEVKFNWYVDGVEVHNAKTKPREEQYNSTYRVVSVLTVLHQDWLNGKEYKCKVSNKALPAPIEKTISKAKGQPREPQVCTLPPSREEMTKNQVSLSCAVKGFYPSDIAVEWESNGQPENNYKTTPPVLDSDGSFFLVSKLTVDKSRWQQGNVFSCSVMHEALHNHYTQKSLSLSPGK light: DIQLTQSPSSLSASVGDRVSITCKASQDVSIAVAWYQQKPGKAPKLLIYSASYRYTGVPDRFSGSGSGTDFTLTISSLQPEDFAVYYCQQHYITPLTFGAGTKVEIKRTVAAPSVFIFPPSDEQLKSGTASVVCLLNNFYPREAKVQWKVDNALQSGNSQESVTEQDSKDSTYSLSSTLTLSKADYEKHKVYACEVTHQGLSSPVTKSFNRGEC |
| ~0.008 µg/mL | ~1 µg/mL | Cross310×Trop2 (bispecific antibody) scFv: not shown heavy: QVQLQQSGSELKKPGASVKVSCKASGYTFTNYGMNWVKQAPGQGLKWMGWINTYTGEPTYTDDFKGRFAFSLDTSVSTAYLQISSLKADDTAVYFCARGGFGSSYWYFDVWGQGSLVTVSSASTKGPSVFPLAPSSKSTSGGTAALGCLVKDYFPEPVTVSWNSGALTSGVHTFPAVLQSSGLYSLSSVVTVPSSSLGTQTYICNVNHKPSNTKVDKKVEPKSSDKTHTCPPCPAPEAAGGPSVFLFPPKPKDTLMISRTPEVTCVVVDVSHEDPEVKFNWYVDGVEVHNAKTKPREEQYNSTYRVVSVLTVLHQDWLNGKEYKCKVSNKALPAPIEKTISKAKGQPREPQVCTLPPSREEMTKNQVSLSCAVKGFYPSDIAVEWESNGQPENNYKTTPPVLDSDGSFFLVSKLTVDKSRWQQGNVFSCSVMHEALHNHYTQKSLSLSPGK light: DIQLTQSPSSLSASVGDRVSITCKASQDVSIAVAWYQQKPGKAPKLLIYSASYRYTGVPDRFSGSGSGTDFTLTISSLQPEDFAVYYCQQHYITPLTFGAGTKVEIKRTVAAPSVFIFPPSDEQLKSGTASVVCLLNNFYPREAKVQWKVDNALQSGNSQESVTEQDSKDSTYSLSSTLTLSKADYEKHKVYACEVTHQGLSSPVTKSFNRGEC |
| ~0.008 µg/mL | ~1 µg/mL | Cross312×Trop2 (bispecific antibody) scFv: not shown heavy: QVQLQQSGSELKKPGASVKVSCKASGYTFTNYGMNWVKQAPGQGLKWMGWINTYTGEPTYTDDFKGRFAFSLDTSVSTAYLQISSLKADDTAVYFCARGGFGSSYWYFDVWGQGSLVTVSSASTKGPSVFPLAPSSKSTSGGTAALGCLVKDYFPEPVTVSWNSGALTSGVHTFPAVLQSSGLYSLSSVVTVPSSSLGTQTYICNVNHKPSNTKVDKKVEPKSSDKTHTCPPCPAPEAAGGPSVFLFPPKPKDTLMISRTPEVTCVVVDVSHEDPEVKFNWYVDGVEVHNAKTKPREEQYNSTYRVVSVLTVLHQDWLNGKEYKCKVSNKALPAPIEKTISKAKGQPREPQVCTLPPSREEMTKNQVSLSCAVKGFYPSDIAVEWESNGQPENNYKTTPPVLDSDGSFFLVSKLTVDKSRWQQGNVFSCSVMHEALHNHYTQKSLSLSPGK light: DIQLTQSPSSLSASVGDRVSITCKASQDVSIAVAWYQQKPGKAPKLLIYSASYRYTGVPDRFSGSGSGTDFTLTISSLQPEDFAVYYCQQHYITPLTFGAGTKVEIKRTVAAPSVFIFPPSDEQLKSGTASVVCLLNNFYPREAKVQWKVDNALQSGNSQESVTEQDSKDSTYSLSSTLTLSKADYEKHKVYACEVTHQGLSSPVTKSFNRGEC |
| ~0.008 µg/mL | ~1 µg/mL | Cross309×Trop2 (bispecific antibody) scFv: not shown heavy: QVQLQQSGSELKKPGASVKVSCKASGYTFTNYGMNWVKQAPGQGLKWMGWINTYTGEPTYTDDFKGRFAFSLDTSVSTAYLQISSLKADDTAVYFCARGGFGSSYWYFDVWGQGSLVTVSSASTKGPSVFPLAPSSKSTSGGTAALGCLVKDYFPEPVTVSWNSGALTSGVHTFPAVLQSSGLYSLSSVVTVPSSSLGTQTYICNVNHKPSNTKVDKKVEPKSSDKTHTCPPCPAPEAAGGPSVFLFPPKPKDTLMISRTPEVTCVVVDVSHEDPEVKFNWYVDGVEVHNAKTKPREEQYNSTYRVVSVLTVLHQDWLNGKEYKCKVSNKALPAPIEKTISKAKGQPREPQVCTLPPSREEMTKNQVSLSCAVKGFYPSDIAVEWESNGQPENNYKTTPPVLDSDGSFFLVSKLTVDKSRWQQGNVFSCSVMHEALHNHYTQKSLSLSPGK light: DIQLTQSPSSLSASVGDRVSITCKASQDVSIAVAWYQQKPGKAPKLLIYSASYRYTGVPDRFSGSGSGTDFTLTISSLQPEDFAVYYCQQHYITPLTFGAGTKVEIKRTVAAPSVFIFPPSDEQLKSGTASVVCLLNNFYPREAKVQWKVDNALQSGNSQESVTEQDSKDSTYSLSSTLTLSKADYEKHKVYACEVTHQGLSSPVTKSFNRGEC |
